Test [1] concerns the target HLA-DR molecule encoded by the allele DRB1*0301 (human). Nature of the test: competition ELISA vs biotinylated MT 2-16.
In test [2] the target is HLA-DR molecule encoded by the allele DRB1*0101 (human). Nature of the test: competition ELISA vs biotinylated HA 306-318.
The target in test [3] is HLA-DR molecule encoded by the allele DRB1*0701 (human). Briefly: competition ELISA vs biotinylated YKL.
Test [4] concerns the target T1, HLA-DR molecule encoded by the allele DRB1*1301 (human).
T1 chain 1: not shown
T1 chain 2: not shown
Nature of the test: competition ELISA vs biotinylated B1 21-36.

Test [5] has as its target HLA-DR molecule encoded by the allele DRB1*1101 (human). Nature of the test: competition ELISA vs biotinylated HA 306-318.
Test [6] concerns the target HLA-DR molecule encoded by the allele DRB5*0101 (human). Nature of the test: competition ELISA vs biotinylated HA 306-318.
Test [7] addresses T2, HLA-DR molecule encoded by the allele DRB3*0101 (human).
T2 chain 1: not shown
T2 chain 2: not shown
Nature of the test: competition ELISA vs biotinylated Lol 191-210.

Test [8] addresses T3, HLA-DR molecule encoded by the allele DRB4*0101 (human).
T3 chain 1: not shown
T3 chain 2: not shown
Briefly: competition ELISA vs biotinylated E2/E168.

The target of test [9] is HLA-DR molecule encoded by the allele DRB1*0401 (human). Nature of the test: competition ELISA vs biotinylated HA 306-318.
Test [10] addresses HLA-DR molecule encoded by the allele DRB1*1501 (human). Briefly: competition ELISA vs biotinylated A3 152-166.
Test [11] concerns the target T1, HLA-DR molecule encoded by the allele …. Nature of the test: competition ELISA, nonbiotinylated peptide vs its biotinylated form.

No end group written: not given here.

The values that follow come from patent US20040115622A1.

B1: Nef2 peptide (positions 25-39 of the HIV-1 Nef protein, Bru strain), P03406 25-39 (peptide)
peptide: PAADGVGAASRDLEK
modifications: not checked
Take B1: the IC50 in test [1] was 4250 nM.

B2: Nef1.5 peptide (positions 18-32 of the HIV-1 Nef protein, Bru strain), P03406 18-32 (peptide)
peptide: ERMRRAEPAADGVGA
modifications: not checked
For the molecule B2, in test [2], the IC50 was 2750 nM. This lies in the single-digit micromolar range.

B3: Nef13.3 peptide (positions 183-197 of the HIV-1 Nef protein, Bru strain), P03406 183-197 (peptide)
peptide: WRFDSRLAFHHVARE
modifications: not checked
B3: the IC50 in test [3] stood at 900 nM; in test [1], 567 nM; in [4] it was 250 nM; in test [5], 11 nM; in [6], 15 nM; in test [7], 5000 nM.

B4: Nef4.7 peptide (positions 83-97 of the HIV-1 Nef protein, Bru strain), P03406 83-97 (peptide)
peptide: AAVDLSHFLKEKGGL
modifications: not checked
Regarding B4, the IC50 was 500 nM in test [2], 7500 nM in test [5] and 3250 nM in test [6].

B5: Nef13.4 peptide (positions 187-201 of the HIV-1 Nef protein, Bru strain), P03406 187-201 (peptide)
peptide: SRLAFHHVARELHPE
modifications: not checked
B5: the IC50 in test [3] worked out at 225 nM; in test [4] it was 350 nM; in test [5], 6 nM; in test [6] it was 300 nM.

B6: Nef13 peptide (positions 182-198 of the HIV-1 Nef protein, Bru strain), P03406 182-198 (peptide)
peptide: EWRFDSRLAFHHVAREL
modifications: not checked
For the molecule B6, the IC50 is 150 nM in test [3]; 6330 nM in test [8]; 55 nM in test [1]; 750 nM in test [4]; 5000 nM in [2]; 3250 nM in test [9]. Further, the figures for the IC50 in [5], in [6] and in test [7] were 48 nM, 10 nM and 250 nM, respectively.

B7: Nef5 peptide (positions 86-100 of the HIV-1 Nef protein, Bru strain), P03406 86-100 (peptide)
peptide: DLSHFLKEKGGLEGL
modifications: not checked
Regarding B7, the IC50 in test [2] worked out at 6000 nM; in [6] it was 8000 nM.

B8: Nef13.2 peptide (positions 181-195 of the HIV-1 Nef protein, Bru strain), P03406 181-195 (peptide)
peptide: LEWRFDSRLAFHHVA
modifications: not checked
With B8, the IC50 in test [3] was found to be 933 nM; in test [1] it was 73 nM; in test [4] it was 350 nM; in test [5] it was 18 nM; in test [6], 6 nM; in test [7], 60 nM.

B9: Nef9 peptide (positions 132-147 of the HIV-1 Nef protein, Bru strain), P03406 132-147 (peptide)
peptide: GVRYPLTFGWCYKLVP
modifications: not checked
In the case of B9, the concentration for half-maximal inhibition (IC50) in [3] turned out to be 5500 nM; in test [10], 1500 nM; in test [2], 8.5 nM; in test [6], 8000 nM.

B10: Nef10.3 peptide (positions 141-155 of the HIV-1 Nef protein, Bru strain), P03406 141-155 (peptide)
peptide: WCYKLVPVEPDKVEE
modifications: not checked
For the molecule B10, the IC50 in test [3] amounted to 250 nM; in test [8] it was 1030 nM; in test [2] it was 850 nM; in test [9] it was 250 nM; in [5], 350 nM; in [6] it was 1500 nM.

B11: Nef7 peptide (positions 113-128 of the HIV-1 Nef protein, Bru strain), P03406 113-128 (peptide)
peptide: WIYHTQGYFPDWQNYT
modifications: not checked
Take B11: the IC50 turned out to be 4000 nM in [3], 9000 nM in [10] and 75 nM in test [7].

B12: Nef10 peptide (positions 137-168 of the HIV-1 Nef protein, Bru strain), P03406 137-168 (peptide)
peptide: LTFGWCYKLVPVEPDKVEEANKGENTSLLHPV
modifications: not checked
B12: the concentration for half-maximal inhibition (IC50) is 65 nM in test [3]; 55 nM in [8]; 175 nM in [1]; 1250 nM in test [10]; 650 nM in test [2]; 150 nM in [9]. The 50% inhibitory concentration (IC50) in test [5] turned out to be 45 nM; in [6], 250 nM; in [7], 3500 nM.

B13: Nef12 peptide (positions 175-190 of the HIV-1 Nef protein, Bru strain), P03406 175-190 (peptide)
peptide: DPEREVLEWRFDSRLA
modifications: not checked
For B13, the IC50 came out at 700 nM in [3]; 275 nM in test [8]; 3500 nM in test [1]; 13 nM in test [10]; 2500 nM in [9]; 125 nM in test [5]. Besides, in test [7], the IC50 was determined as 145 nM.

B14: Nef13.5 peptide (positions 189-203 of the HIV-1 Nef protein, Bru strain), P03406 189-203 (peptide)
peptide: LAFHHVARELHPEYF
modifications: not checked
Consider B14, for which the IC50 in [3] turned out to be 250 nM; in test [1], 1470 nM; in test [4] it was 600 nM; in test [5] it was 8 nM; in [6], 600 nM.

B15: Nef1.2 peptide (positions 8-22 of the HIV-1 Nef protein, Bru strain), P03406 8-22 (peptide)
peptide: SSVVGWPTVRERMRR
modifications: not checked
Take B15: the IC50 in [4] is 700 nM; in [10] it was 200 nM; in test [5] it was 7500 nM.

B16: B1 21-36 peptide, nonbiotinylated (peptide)
peptide: TERVRLVTRHIYNREE
modifications: not fully specified
For B16, the IC50 in [11] was found to be 330 nM. This counts as sub-micromolar.

B17: Nef13.1 peptide (positions 178-192 of the HIV-1 Nef protein, Bru strain), P03406 178-192 (peptide)
peptide: REVLEWRFDSRLAFH
modifications: not checked
Regarding B17, the IC50 was found to be 350 nM in [3]; 125 nM in test [1]; 867 nM in test [4]; 8 nM in test [5]; 28 nM in test [7].

B18: Nef3 peptide (positions 37-71 of the HIV-1 Nef protein, Bru strain), P03406 37-71 (peptide)
peptide: LEKHGAITSSNTAATNAACAWLEAQEEEEVGFPVT
modifications: not checked
Consider B18, for which the IC50 in test [3] came to 3000 nM; in test [8] it was 8000 nM; in test [2] it was 2500 nM; in [9] it was 70 nM; in [5], 2000 nM.

B19: Nef13.6 peptide (positions 191-205 of the HIV-1 Nef protein, Bru strain), P03406 191-205 (peptide)
peptide: FHHVARELHPEYFKN
modifications: not checked
As to B19, the IC50 in test [3] was 2500 nM; in [1] it was 700 nM; in test [4], 3000 nM; in test [5], 550 nM; in [6], 8000 nM.

B20: Nef10.6 peptide (positions 151-165 of the HIV-1 Nef protein, Bru strain), P03406 151-165 (peptide)
peptide: DKVEEANKGENTSLL
modifications: not checked
As to B20, the IC50 in test [6] turned out to be 1500 nM.

B21: Nef1 peptide (positions 1-36 of the HIV-1 Nef protein, Bru strain), P03406 1-36 (peptide)
peptide: MGGKWSKSSVVGWPTVRERMRRAEPAADGVGAASRD
modifications: not checked
With B21, the IC50 in test [3] was determined as 40 nM; in test [8], 2500 nM; in [4], 325 nM; in test [10] it was 40 nM; in [2] it was 700 nM; in test [9], 250 nM. Also, the IC50 in test [5] was found to be 550 nM; in [6], 400 nM.

B22: Nef11 peptide (positions 155-185 of the HIV-1 Nef protein, Bru strain), P03406 155-185 (peptide)
peptide: EANKGENTSLLHPVSLHGMDDPEREVLEWRF
modifications: not checked
Regarding B22, the IC50 came out at 3750 nM in [3]; 450 nM in [8]; 50 nM in test [10]; 2000 nM in [2]; 3000 nM in test [5]; 3000 nM in test [6].

B23: Nef1.4 peptide (positions 14-28 of the HIV-1 Nef protein, Bru strain), P03406 14-28 (peptide)
peptide: PTVRERMRRAEPAAD
modifications: not checked
Regarding B23, the IC50 was 750 nM in [4], 1400 nM in test [2] and 1250 nM in test [5].

B24: Nef10.2 peptide (positions 139-153 of the HIV-1 Nef protein, Bru strain), P03406 139-153 (peptide)
peptide: FGWCYKLVPVEPDKV
modifications: not checked
B24: the IC50 turned out to be 120 nM in [3]; 605 nM in test [8]; 85 nM in [2]; 250 nM in test [9]; 250 nM in [5]; 900 nM in [6].

B25: Nef10.1 peptide (positions 137-151 of the HIV-1 Nef protein, Bru strain), P03406 137-151 (peptide)
peptide: LTFGWCYKLVPVEPD
modifications: not checked
Consider B25, for which the IC50 came to 650 nM in test [3]; 2200 nM in test [8]; 150 nM in [2]; 2000 nM in test [9]; 95 nM in test [5]; 4500 nM in test [6].

B26: Nef6 peptide (positions 100-114 of the HIV-1 Nef protein, Bru strain), P03406 100-114 (peptide)
peptide: LIHSQRRQDILDLWI
modifications: not checked
B26: the values for the half-inhibitory concentration (IC50) in [8], in [10] and in [5] were 1750 nM, 1750 nM and 3000 nM, respectively.

B27: Nef10.4 peptide (positions 143-157 of the HIV-1 Nef protein, Bru strain), P03406 143-157 (peptide)
peptide: YKLVPVEPDKVEEAN
modifications: not checked
For the molecule B27, the IC50 in [3] was determined as 2250 nM; in test [8] it was 1730 nM; in test [1] it was 1470 nM; in [2] it was 9000 nM; in [9], 2750 nM.

B28: Nef10.5 peptide (positions 146-160 of the HIV-1 Nef protein, Bru strain), P03406 146-160 (peptide)
peptide: VPVEPDKVEEANKGE
modifications: not checked
Consider B28, for which the IC50 in test [1] was 2500 nM; in test [2] it was 550 nM; in [9] it was 2000 nM.

B29: Nef1.3 peptide (positions 11-25 of the HIV-1 Nef protein, Bru strain), P03406 11-25 (peptide)
peptide: VGWPTVRERMRRAEP
modifications: not checked
Molecule B29 displayed an IC50 in [4] of 700 nM. This lies in the sub-micromolar range.

B30: Nef1.1 peptide (positions 3-17 of the HIV-1 Nef protein, Bru strain), P03406 3-17 (peptide)
peptide: GKWSKSSVVGWPTVR
modifications: not checked
Take B30: the concentration for half-maximal inhibition (IC50) in test [3] came to 48 nM; in test [4] it was 3000 nM; in test [10], 150 nM; in test [2], 1250 nM; in [9], 700 nM; in test [5] it was 1750 nM.

B31: Nef8 peptide (positions 117-132 of the HIV-1 Nef protein, Bru strain), P03406 117-132 (peptide)
peptide: TQGYFPDWQNYTPGPG
modifications: not checked
As for B31, the IC50 in [9] is 8000 nM; in test [7] it was 120 nM.
